In publication doi:10.1101/188169:

Biological target: endogenous α-SYN from human postmortem brain (substantia nigra) (human (endogenous in postmortem brain)) (UniProt P37840)

- percent of detected α-SYN that is oligomeric (PD brain): 56%
- percent of detected α-SYN that is oligomeric (control brain): 23%
Substance: endogenous α-SYN from human postmortem brain (substantia nigra) (from UniProt P37840 1-140) (natural protein)
